The target of one assay is human CCR4 (human) (UniProt P51679). Put plainly: cell-based or functional assay.
The target in the next assay is T1, integrin α4β7 (human, UniProt P13612 34-1032; P26010 20-798).
T1 construct: whole, on cells; also called a4p7
The experiment in a line: cell adhesion to MAdCAM-1 transfectants, elution with 0.5mM EDTA.

A value given as a limit tells only on which side of the number the result lay.

human CCR4 (human), sequence (P51679 whole entry): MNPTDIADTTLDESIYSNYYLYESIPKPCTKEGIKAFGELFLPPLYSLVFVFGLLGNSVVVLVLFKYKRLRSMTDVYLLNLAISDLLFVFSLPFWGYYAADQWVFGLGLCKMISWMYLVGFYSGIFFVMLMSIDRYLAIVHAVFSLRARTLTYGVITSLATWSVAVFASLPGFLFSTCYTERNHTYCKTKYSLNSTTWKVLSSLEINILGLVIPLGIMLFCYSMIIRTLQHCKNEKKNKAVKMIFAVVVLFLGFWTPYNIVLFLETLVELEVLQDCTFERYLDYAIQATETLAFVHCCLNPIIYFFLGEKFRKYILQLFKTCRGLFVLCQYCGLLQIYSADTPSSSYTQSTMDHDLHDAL
T1 sequence (P13612 34-1032, chain 1 of 2): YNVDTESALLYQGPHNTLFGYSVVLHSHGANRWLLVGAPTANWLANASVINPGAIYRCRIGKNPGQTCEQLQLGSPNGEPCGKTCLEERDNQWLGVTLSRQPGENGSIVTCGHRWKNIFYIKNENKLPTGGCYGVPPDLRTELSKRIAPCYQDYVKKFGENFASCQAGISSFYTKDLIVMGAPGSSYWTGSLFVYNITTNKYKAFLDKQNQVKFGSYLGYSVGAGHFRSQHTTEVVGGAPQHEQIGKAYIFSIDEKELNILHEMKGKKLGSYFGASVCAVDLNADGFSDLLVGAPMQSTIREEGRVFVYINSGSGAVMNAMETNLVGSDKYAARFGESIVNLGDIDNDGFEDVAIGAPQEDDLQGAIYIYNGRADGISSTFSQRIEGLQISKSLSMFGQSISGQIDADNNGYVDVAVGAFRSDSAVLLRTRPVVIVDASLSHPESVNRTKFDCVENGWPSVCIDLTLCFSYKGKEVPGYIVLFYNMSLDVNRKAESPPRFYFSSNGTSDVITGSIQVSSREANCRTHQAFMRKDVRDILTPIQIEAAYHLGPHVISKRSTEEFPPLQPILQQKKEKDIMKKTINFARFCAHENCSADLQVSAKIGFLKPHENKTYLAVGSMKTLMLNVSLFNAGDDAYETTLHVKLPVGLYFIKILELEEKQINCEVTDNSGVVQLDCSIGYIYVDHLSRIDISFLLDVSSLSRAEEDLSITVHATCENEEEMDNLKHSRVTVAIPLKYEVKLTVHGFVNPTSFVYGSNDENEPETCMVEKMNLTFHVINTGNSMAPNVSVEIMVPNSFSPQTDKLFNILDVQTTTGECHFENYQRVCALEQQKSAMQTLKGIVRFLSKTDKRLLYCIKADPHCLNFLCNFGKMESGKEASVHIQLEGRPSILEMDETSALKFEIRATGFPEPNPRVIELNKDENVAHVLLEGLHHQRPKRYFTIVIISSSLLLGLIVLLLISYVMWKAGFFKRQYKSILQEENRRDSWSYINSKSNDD
T1 sequence (P26010 20-798, chain 2 of 2): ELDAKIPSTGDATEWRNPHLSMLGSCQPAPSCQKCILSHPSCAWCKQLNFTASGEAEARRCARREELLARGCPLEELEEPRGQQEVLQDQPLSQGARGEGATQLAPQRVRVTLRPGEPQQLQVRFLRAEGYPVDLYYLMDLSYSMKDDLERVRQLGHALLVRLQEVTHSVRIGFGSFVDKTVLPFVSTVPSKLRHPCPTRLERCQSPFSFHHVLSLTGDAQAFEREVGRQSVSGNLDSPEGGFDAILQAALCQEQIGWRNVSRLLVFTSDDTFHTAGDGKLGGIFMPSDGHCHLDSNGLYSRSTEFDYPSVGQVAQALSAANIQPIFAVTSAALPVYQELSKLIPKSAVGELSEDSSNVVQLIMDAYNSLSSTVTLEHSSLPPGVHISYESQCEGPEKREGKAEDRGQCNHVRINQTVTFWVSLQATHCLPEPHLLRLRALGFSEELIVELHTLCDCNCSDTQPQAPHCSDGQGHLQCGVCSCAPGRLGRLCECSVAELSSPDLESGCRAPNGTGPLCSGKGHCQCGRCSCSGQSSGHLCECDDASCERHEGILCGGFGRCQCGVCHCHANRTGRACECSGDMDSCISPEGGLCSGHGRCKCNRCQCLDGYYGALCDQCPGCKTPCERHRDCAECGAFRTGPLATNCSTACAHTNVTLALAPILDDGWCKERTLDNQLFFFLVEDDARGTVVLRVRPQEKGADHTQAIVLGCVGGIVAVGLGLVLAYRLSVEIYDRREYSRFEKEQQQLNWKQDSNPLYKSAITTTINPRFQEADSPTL

As for “human TARC (thymus and activation-regulated chemokine) (from UniProt Q92583 24-94) (ligand)”, the rapid adhesion of α4β7(-) memory CD4+ lymphocytes to immobilized ICAM-1 (static assay, TARC at 1 µM) (% of input cells) with human CCR4 (human) is less than 50.

B1: murine MAdCAM-1 (receptor, UniProt Q61826 22-405, looked up)
chain: QSFQVNPPESEVAVAMGTSLQITCSMSCDEGVARVHWRGLDTSLGSVQTLPGSSILSVRGMLSDTGTPVCVGSCGSRSFQHSVKILVYAFPDQLVVSPEFLVPGQDQVVSCTAHNIWPADPNSLSFALLLGEQRLEGAQALEPEQEEEIQEAEGTPLFRMTQRWRLPSLGTPAPPALHCQVTMQLPKLVLTHRKEIPVLQSQTSPKPPNTTSAEPYILTSSSTAEAVSTGLNITTLPSAPPYPKLSPRTLSSEGPCRPKIHQDLEAGWELLCEASCGPGVTVRWTLAPGDLATYHKREAGAQAWLSVLPPGPMVEGWFQCRQDPGGEVTNLYVPGQVTPNSSSTVVLWIGSLVLGLLALVFLAYRLWKCYRPGPRPDTSSCTHL
notes: whole, on cells; CHO cells transfected with murine MAdCAM-1; also called mucosal addressin cell adhesion molecule
B1: the binding result in the assay with integrin α4β7 is “binds”.

(Values after patent publication US20020019341A1 (Stanford University, published 2002).)
